Data reported in the DeepSol protein solubility set.

Experiment: soluble on expression in E. coli; label from the status in PepcDB or PDB records

LTLKNPIMVVGLPGVGLVGKLVAEHLVDELAAERIMEVYSPHFPPQVLVNKDCTVRPVSNTIYLGKANETDVLFLVGDHQSTTAQGHYELCSLYLDIAEELKVPRIYTLGGYPTGKLTYEDTVLGVANSTELIEEIKQYGVEFRESEPSGGIVGASGLLVAFSGMRGIDAACLMGMTPGYLMDPKSAQSLLKVLCNIFGIEVNTDSLKKKAEEMENILEKLKEKEEQQNLPEVKPTEEDLRYIG
soluble on expression in E. coli: not soluble

MGSDKIHHHHHHMVNLDGGYTAYEQQHNNESFKLEKDKEIQIKDNRKTFNYSNLQCPGPIVNISKEIKNIAIGDQIEVVVTDHGFLNDIKSWVKQTGHTLVRLNDSGNEIRAIIQKEENKNIEVTHTKNGTTIVLFSGELDKAVAAMIIANGAKAAGRDVTIFCTFWGLNALKKIQSQRIKKKGIAKLFDFMLPNSPIKMPISKMNMFGVGNLMMRYVMKKKNVDDLPSLINQAVEQGVKLIACTMSMDVMGISKEELRDDVEYGGVGAYIGYTEQANHNLFI
soluble on expression in E. coli: not soluble

MTYYNVGKIVNTQGLQGELRVLSVTDFADERFKKKSVLALFDDKDNYIMDVEVASHRKHKNFDIVKFKGLYHINDVEKYKGCSLKIAEENLTDLDDGEFYYHEIIGLDVYEGNTLIGQVKEILQPGANDVWVVKRKGKKDLLLPYIPPVVLDVDVAAGRIEVELMEGLDDEDLEHHHHHH
soluble on expression in E. coli: soluble

MGSDKIHHHHHHMIIKTSFLIVIHAQYAKKVVGKKISIYFTIHSGIKIFVKMKTCARISCFLILAVCSFFDAAAQGNFLLWEITGNGLADTSYLFGTIHIRDKRVFNLGDSTYYAITHTKALYGELNLQDKSEMKQHAPELLMPSGTSLQAMLSAQDYKLVKKYCKKHIGVYALLINKIKPIYISAVVSEDLLKKEEKKPLDLYLQDYAARQGNEIGGIETFQEQLSVIDLLPLQEQADMLVEQIKNIDQEKILMEQMLQFYLNESLDSLEILVQEDTLSQEFNEAILDARNKVMLTRMETQMNREPTFFAVGAAHLAGEKGLVILLRKAGYTVRPVKRK
soluble on expression in E. coli: not soluble

MLTSRALRIPRKPFVDLDYARHMPSAYVERTKRTVPRKVFGDRFGAPDIKMYYVHPDDYVPSHRRPWEDKQISSHLHRSDKYFSAQLSNQYFNLRRPKSERMADTEWTFFPGDLVQVMVGKDKGRQGLVLTTSRDSSDVIVDGLHTKLGEDMEGSEKLGVDKTLRWQEQPLSVSKKQVMLVDPNDEQPCEARWQLNGPGDEYIRVSTRSGYEIPIPSQAKVTYEYLQPENYIEVEGKDTPADAVLERTYMPKVASFEQEIMEEMGIKEERTPKPTFWY
soluble on expression in E. coli: not soluble

MSLASQSEAEVLIGVAGPMSGKLAWTGTQLRRGAEMAVANINAAGGVLGQQVRLIVADDFCDPRQALAAAEKLVADGAVFVIGHYCSGASIPASKIYAAAGVLQISPSSTNPMLTEQGHANVFRVCSRDDAQGHKAGNYLADHWGDSKIAILHDNTTYGKGLADETKKQLNMRGVTEAVYQSYTPGKDDYSVEVAALQTAHIAVLYLGGYHTEAALMVRAARDRAYPVQLISGDDTATEAFGLIAGPAAEGTLFTFVADPRRNAEAAEVVERFRAENFEPDSWTLHSYGAAEIWAQAVTKANSLDLQAVIAALREDQFDTVLGRIDFDKKGDLTVQSWVWYVWKSGEYVPVEEGHHHHHH
soluble on expression in E. coli: soluble

MNLIDYKARERGIEVEMPDERGTSSSCSVCGHEDEDSRVERGLWKCDCCGIVAHGDVNGADNIRQKTLPVTPPLGGSGNGCLAQPCVIQFSRTRGFQPRAPAELEHHHHHH
soluble on expression in E. coli: soluble

MTIELRDVTMENYFDVLNLDVKEYQKQFIATNAISLAEAYVYTKNGDFVAPLAVYDNDAIIGFVMIAYDKKIGISSGNYLLFRFMIDKNFQNQGYFKPIMDKVLDYVRTAPAGLSNKLWLSYEPENEQARFCYLSYGFKETGEISENEVVAIYDLTIEK
soluble on expression in E. coli: not soluble

MTDHTMKKNPVSIPHTVWYADDIRRGEREAADVLGLTLYELMLRAGEAAFQVCRSAYPDARHWLVLCGHGNNGGDGYVVARLAKAVGIEVTLLAQESDKPLPEEAALAREAWLNAGGEIHASNIVWPESVDLIVDALLGTGLRQAPRESISQLIDHANSHPAPIVAVDIPSGLLAETGATPGAVINADHTITFIALKPGLLTGKARDVTGQLHFDSLGLDSWLAGQETKIQRFSAEQLSHWLKPRRPTSHKGDHGRLVIIGGDHGTAGAIRMTGEAALRAGAGLVRVLTRSENIAPLLTARPELMVHELTMDSLTESLEWADVVVIGPGLGQQEWGKKALQKVENFRKPMLWDADALNLLAINPDKRHNRVITPHPGEAARLLGCSVAEIESDRLHCAKRLVQRYGGVAVLKGAGTVVAAHPDALGIIDAGNAGMASGGMGDVLSGIIGALLGQKLSPYDAACAGCVAHGAAADVLAARFGTRGMLATDLFSTLQRIVNPEVTDKNHDESSNSAP
soluble on expression in E. coli: soluble

SLVKLSTPLRVVTTLPHQPGRTGYIVFKKVPESFRCDSIASFYRRVRRSMGLREAVVFLTAAEVDRPLHEVIDEPETHIIATVGLKPPACPGGTAGAPRPGTINIAVATSAGLSRAGAIDLLRVVAEAKAAAAAEALLPCLHRATGTATDAIAVLHTPGATDFSGFYTRLGGLVGRSLYFALVDAAVARRGPDSLLRALTGMSMEGLLELFRRVYMQSPIPGVPVEEALGRAGRMLERMMRDPNVAALLIAARELDLHGSAGAIPGLSRSGYKGDSKAIVADELLAAALAEYLAGFKGLLATIWVEKLKSMGLADAGLPMFMDDMVSAVVGSLVSRLHDEVREG
soluble on expression in E. coli: soluble

MPKRNDIKTILVIGSGPIIIGQAAEFDYAGTQACLALKEEGYRVILVNSNPATIMTDKEIADKVYIEPLTHDFIARIIRKEQPDALLPTLGGQTGLNMAIQLHESGVLQDNNVQLLGTELTSIQQAEDREMFRTLMNDLNVPVPESDIVNTVEQAFKFKEQVGYPLIVRPAFTMGGTGGGICHNDEELHEIVSNGLHYSPATQCLLEKSIAGFKEIEYEVMRDKNDNAIVVCNMENIDPVGIHTGDSIVVAPSQTLSDVEYQMLRDVSLKVIRALGIEGGCNVQLALDPHSFDYYIIEVNPRVSRSSALASKATGYPIAKLAAKIAVGLTLDEMLNPITGTSYAAFEPTLDYVISKIPRFPFDKFEKGERELGTQMKATGEVMAIGRTYEESLLKAIRSLEYGVHHLGLPNGESFDLDYIKERISHQDDERLFFIGEAIRRGTTLEEIHNMTQIDYFFLHKFQNIIDIEHQLKEHQGDLEYLKYAKDYGFSDKTIAHRFNMTEEEVYQLRMENDIKPVYKMVDTCAAEFESSTPYYYGTYETENESIVTDKEKILVLGSGPIRIGQGVEFDYATVHAVWAIQKAGYEAIIVNNNPETVSTDFSISDKLYFEPLTEEDVMNIINLEKPKGVVVQFGGQTAINLADKLAKHGVKILGTSLENLNRAEDRKEFEALLRKINVPQPQGKTATSPEEALANAAEIGYPVVVRPSYVLGGRAMEIVDNDKELENYMTQAVKASPEHPVLVDRYLTGKEIEVDAICDGETVIIPGIMEHIERAGVHSGDSIAVYPPQTLTEDELATLEDYTIKLAKGLNIIGLINIQFVIAHDGVYVLEVNPRSSRTVPFLSKITDIPMAQLAMRAIIGEKLTDMGYQEGVQPYAEGVFVKAPVFSFNKLKNVDITLGPEMKSTGEVMGKDTTLEKALFKGLTGSGVEVKDHGTVLMTVSDKDKEEVVKLAQRLNEVGYKILATSGTANKLAEYDIPAEVVGKIGGENDLLTRIQNGDVQIVINTMTKGKEVERDGFQIRRTTVENGIPCLTSLDTANALTNVIESMTFTMRQM
soluble on expression in E. coli: not soluble

AIARALESTPLTGDVDWKSPLGSRSTWARLREQTRHCTFYRTYCFKASLKQLEEVTEEHVTYVGDCAALPPSPFLCVLLAYDCCSPSREEVAAHLDCSKNVYWRAIVATWIRWKESRAEQVYQLLDPLYRDYRPIKVRQKDNSYHNSYLDVFIDQLLRYRCALVSLEEPFVLDVIPFPHLPPRYELEARGVLPQREYAAPADDDDDDDAVSRPRLQQ
soluble on expression in E. coli: soluble

MGSDKIHHHHHHMNNKGKLAILFIDALPYFKSRNIGQILNLYRLIPGLGYSVNQHYELLYGKTPDDVGFFGEWSLGCSTKFDTIKFRFHKTIDSILWKLKLNLIRKGYRKIILRLEDMIPLGRRKYFLRKGTYAFRELAKEGFILYNTQFRGYIEELDRTLPRNEEKRMETMFNKMFNIAKNTDHPLLFTINIIDHIGHKYGPESPEYDYFLDLFAKKLLDLLIFLKENGFHVILFSDHGMSPYKAKVNLSDFEHYFGKFFGKYIVYFYDSLYFRAWIFDSFLYLEIEEFLNKLPGKILSSNDRKKFGVVHEEHGHVIFVLNEGFTFHPNYFGYSVMKGYHGYLPEFERQHGIAAFSRAFKIDNLFQGNPPKYLNSIDFSRIIKHILEANRNV
soluble on expression in E. coli: not soluble

SRMNPTIMVPGSEATQERFNETLASLNKQGKKHSILKLTVHKDNSISYSGQIAASDNRPYIVVAFADNKDSYTTIKKQAKWLDHALDELQKKYHFKNFNAIGHSNGGLDWTVYLENYYAKENFHLNTLMTIGTPYNFEVVNSSNHTQMLQDLIAAKDALPDDLTVYNVAGTNSYDGDYIVPITSVETGKYIFQKTIKQYTQITVTGNEAEHSDLPTNKEVLDLISENILNNNRKKVDPKNQN
soluble on expression in E. coli: not soluble

MSRKFPSFIVDAFTTKSFAGNPAAVCLIPEVFKDQEYLKIAAEFNLSETAFPVPIGSTDFKTCSQFSLRWFTPKTEVPLCGHATLATSHVLFNEVGNVNKEIKFDTQSGVLIAKRDEKGNVEMNFPEYDLASVKFNDTPNPLQGIFSEFEAPSFLFEVIKCVVPTEMIIESVVYSSKSRKLIVIVDPETTKFELEAVRIDCSKMLEIHDGSFVRGLAISLRPSNPMAQGFVDSSDEPYDYACRYFAPWVGIDEDPATGSAQCVMGPFWSKMLGKNELYAFQAFPTRGAQFRIRLQDDRVILNGPSVTVLRGELALN
soluble on expression in E. coli: not soluble

MARPKSEDKKQALLEAATQAIAQSGIAASTAVIARNAGVAEGTLFRYFATKDELINTLYLHLKQDLCQSMIMELDRSITDAKMMTRFIWNSYISWGLNHPARHRAIRQLAVSEKLTKETEQRADDMFPELRDLCHRSVLMVFMSDEYRAFGDGLFLALAETTMDFAARDPARAGEYIALGFEAMWRALTREEQ
soluble on expression in E. coli: not soluble

MKENFLKQKRMEKNLTLEQVGNFVGVGKSTVRKWETGMIENMGRDKIVALSKILDVSPLEILGIPETEETPFVVPTNIMNIYKQLTTENQEAVFRYAQKKLTEQNYF
soluble on expression in E. coli: not soluble

TFGKDNIKSKVILFSIEKPSKEVAEKLEMQDDYIYRIIRMREVGHKAYSIEHTYMPLAIIPGLEPHHLEDSIYNYIRDDLKLKMQSAHVWVRGDKSNQEDSKLLDLEEPTFMMEIEKLAHLEDGRVFEYSITRHTYESFV
soluble on expression in E. coli: not soluble

MLRDTFANTLKDALKARDARRTSTVRLIQAAVKDRDIANRGVGKDPVSDEDIMQILTKMVKQREESATIYEGAGRPELAAQEREEIVIIKEFMPEEIPAEKVRELCQAVISETGASGLRDMGKCMNALKERYPGQIDFAKASGVVKDLLK
soluble on expression in E. coli: not soluble

MDSHCRVRPAGPAVPADCDPPRITHAALAARLGDARLLTLYDQATWSEGPAWWEAQRTLVWSDLVGRRVLGWREDGTVDVLLDATAFTNGNAVDAQQRLVHCEHGRRAITRSDADGQAHLLVGRYAGKRLNSPNDLIVARDGAIWFTDPPFGLRKPSQGCPADPELAHHSVYRLPPDGSPLQRMADLDHPNGLAFSPDEQTLYVSQTPEQGHGSVEITAFAWRDGALHDRRHFASVPDGLPDGFCVDRGGWLWSSSGTGVCVFDSDGQLLGHIPTPGTASNCTFDQAQQRLFITGGPCLWMLPLP
soluble on expression in E. coli: soluble
